Test results reported in paper PMC8573170 (2021).

Key:
alpha-thrombin [1] = target: T1, alpha-thrombin (Homo sapiens, UniProt P00734); assay: inhibition of S-2238 hydrolysis, Kiapp versus substrate concentration regression
alpha-thrombin [2] = target: T1, alpha-thrombin; assay: SPR
alpha-thrombin [3] = target: T1, alpha-thrombin; assay: inhibition of S-2238 hydrolysis, Morrison fit

| Binder | Ki (alpha-thrombin [1]) [pM] | Kd (alpha-thrombin [2]) [pM] | Ki (alpha-thrombin [3]) [pM] |
| --- | --- | --- | --- |
| KPVEAEVAQPKLYQRGEGGNGMEPIPEDVLNEALNA [XC-43 mature peptide] | 7.7 | 3 | 6.1 |
| KPVEAEVAQSNLDECEVEAEVAQPKLYQRGEGGNGMEPIPEDVLNEALNA [XC-42 mature peptide] |  |  | 18 |
